US20140011214A1

Columns and labels:
[1] = molecular target: Antiparallel leucine zipper partner peptide Z′ fused to the C-terminal fragment of superpositive GFP (CspGFP, amino acids 158-231), expressed from pMRBAD-Z′-CspGFP; assay: cell-based or functional assay
[2] = molecular target: Antiparallel leucine zipper partner peptide Z′ fused to the C-terminal fragment of the stabilized GFP variant sg100 (Csg100GFP), expressed from pMRBAD-Z′-Csg100GFP; assay: cell-based or functional assay

| cell fluorescence 1 hour after induction at 25° C., against split-frGFP Z/Z′ fusions (% more fluorescent) [1] | cell fluorescence after 24 hours at 37° C., against split-frGFP Z/Z′ fusions (% more fluorescent) [1] | maximum mean cell fluorescence, 12 hours at 25° C., against split-frGFP Z/Z′ fusions [1] [% brighter] | mean cell fluorescence (flow cytometry), 1 hour after induction at 25° C. [1] [fold] | mean cell fluorescence (flow cytometry), 2 hours after induction at 25° C. [1] [fold] | mean cell fluorescence (flow cytometry), 3 hours after induction at 25° C. [1] [fold] | mean cellular fluorescence (flow cytometry) in E. coli after 12 hours at 25° C., compared to uninduced cells [1] [fold] | mean cell fluorescence (flow cytometry), 3 hours after induction at 25° C. [2] [fold] | mean cellular fluorescence (flow cytometry) in E. coli after 12 hours at 25° C., compared to uninduced cells [2] [fold] | Substance |
| --- | --- | --- | --- | --- | --- | --- | --- | --- | --- |
| 34 | 24 | 22 | 5 | 15 | 28 | 75 |  |  | N-terminal fragment of superpositive GFP (NspGFP, amino acids 1-157) fused to antiparallel leucine zipper peptide Z, expressed from pET11a-Z-NspGFP |
|  |  |  |  |  |  |  | 1.2 | 2.3 | N-terminal fragment of the stabilized GFP variant sg100 (Nsg100GFP) fused to antiparallel leucine zipper peptide Z, expressed from pET11a-Z-Nsg100GFP |
